# Source: publication PMC9482650, “Quantitative fragmentomics allow affinity mapping of interactomes” (Nature Communications, 2022)
# T1: GIPC1, O14908
# T1 sequence (O14908 128-223, limits assumed, looked up): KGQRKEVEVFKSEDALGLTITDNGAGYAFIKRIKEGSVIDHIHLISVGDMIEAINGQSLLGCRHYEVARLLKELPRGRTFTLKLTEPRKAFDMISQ
# T2: LIN7A, O14910
# T2 sequence (O14910 103-200, limits assumed, looked up): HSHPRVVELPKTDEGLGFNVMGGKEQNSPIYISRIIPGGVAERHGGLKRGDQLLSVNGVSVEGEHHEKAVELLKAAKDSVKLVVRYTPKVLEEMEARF
# T3: MPDZ_13, O75970
# T3 sequence (O75970 1982-2070, limits assumed, looked up): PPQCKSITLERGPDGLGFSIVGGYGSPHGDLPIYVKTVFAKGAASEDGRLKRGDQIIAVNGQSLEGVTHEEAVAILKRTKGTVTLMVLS
# T4: MPDZ_7, O75970
# T4 sequence (O75970 1146-1253, limits assumed, looked up): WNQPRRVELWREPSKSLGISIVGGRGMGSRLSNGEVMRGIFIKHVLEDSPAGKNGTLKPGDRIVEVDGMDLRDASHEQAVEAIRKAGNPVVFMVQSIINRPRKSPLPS
# T5: MPP1, Q00013
# T5 sequence (Q00013 66-162, limits assumed, looked up): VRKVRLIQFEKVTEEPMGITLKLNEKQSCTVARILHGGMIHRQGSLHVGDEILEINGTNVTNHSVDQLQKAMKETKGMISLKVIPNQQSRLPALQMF
# T6: NHERF3_2, Q5T2W1
# T6 sequence (Q5T2W1 129-225, limits assumed, looked up): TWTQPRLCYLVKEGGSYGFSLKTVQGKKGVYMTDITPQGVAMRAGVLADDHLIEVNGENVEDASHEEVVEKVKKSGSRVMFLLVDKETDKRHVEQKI
# T7: PARD6G, Q9BYG4
# T7 sequence (Q9BYG4 153-261, limits assumed, looked up): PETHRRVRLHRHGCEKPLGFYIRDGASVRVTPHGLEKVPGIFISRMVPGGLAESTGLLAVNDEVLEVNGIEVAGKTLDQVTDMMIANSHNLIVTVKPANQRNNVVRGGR
# T8: PDLIM3, Q53GG5
# T8 sequence (Q53GG5 1-94, limits assumed, looked up): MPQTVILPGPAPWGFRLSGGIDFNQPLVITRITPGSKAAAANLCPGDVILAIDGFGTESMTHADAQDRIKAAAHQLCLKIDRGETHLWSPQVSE
# T9: PDZD2_3, O15018
# T9 sequence (O15018 581-682, limits assumed, looked up): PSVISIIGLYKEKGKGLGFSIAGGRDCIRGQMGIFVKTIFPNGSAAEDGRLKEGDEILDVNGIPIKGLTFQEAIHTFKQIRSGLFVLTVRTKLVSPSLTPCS
# T10: PTPN4, P29074
# T10 sequence (P29074 512-599, limits assumed, looked up): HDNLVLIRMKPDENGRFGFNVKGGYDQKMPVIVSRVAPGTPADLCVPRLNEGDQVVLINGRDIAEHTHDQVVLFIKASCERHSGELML
# T11: SHROOM3, Q8TF72
# T11 sequence (Q8TF72 20-120, limits assumed, looked up): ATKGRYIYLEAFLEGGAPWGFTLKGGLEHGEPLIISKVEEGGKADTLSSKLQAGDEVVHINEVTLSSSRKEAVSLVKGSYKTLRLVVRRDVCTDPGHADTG
# T12: SHROOM4, Q9ULL8
# T12 sequence (Q9ULL8 5-102, limits assumed, looked up): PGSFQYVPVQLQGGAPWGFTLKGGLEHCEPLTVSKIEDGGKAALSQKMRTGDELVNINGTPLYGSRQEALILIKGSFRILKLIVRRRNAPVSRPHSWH
# T13: USH1C_1, Q9Y6N9
# T13 sequence (Q9Y6N9 82-179, limits assumed, looked up): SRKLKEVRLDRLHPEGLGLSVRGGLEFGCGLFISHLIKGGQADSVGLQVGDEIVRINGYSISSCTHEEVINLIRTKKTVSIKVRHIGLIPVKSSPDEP
# Key:
# Test in all cases: holdup assay
# Set-up in all cases: key: below the threshold = too weak to quantify, mostly under pKd 3.1 to 4
# Settings in all cases: plain residues with an end cap or a label only (N-terminal biotin on a linker: ttds)
# DLG2_1, Q15700 = molecular target: DLG2_1, Q15700
# DVL2, O14641 = molecular target: DVL2, O14641
# Chain of DVL2, O14641 (O14641 260-359): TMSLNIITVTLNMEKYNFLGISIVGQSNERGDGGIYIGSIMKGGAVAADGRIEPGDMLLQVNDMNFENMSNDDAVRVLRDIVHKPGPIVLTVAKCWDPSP
# GIPC1, O14908 = molecular target: T1, GIPC1, O14908
# LIN7A, O14910 = molecular target: T2, LIN7A, O14910
# MAGI1_5, Q96QZ7 = molecular target: MAGI1_5, Q96QZ7
# Chain of MAGI1_5, Q96QZ7 (Q96QZ7 986-1098): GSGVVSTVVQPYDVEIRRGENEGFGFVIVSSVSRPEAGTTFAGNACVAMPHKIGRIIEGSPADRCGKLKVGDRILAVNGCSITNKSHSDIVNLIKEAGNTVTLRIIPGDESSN
# MAGI3_3, Q5TCQ9 = molecular target: MAGI3_3, Q5TCQ9
# Chain of MAGI3_3, Q5TCQ9 (Q5TCQ9 572-655): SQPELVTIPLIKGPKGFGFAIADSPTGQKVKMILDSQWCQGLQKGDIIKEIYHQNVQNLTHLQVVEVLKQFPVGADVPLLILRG
# MAGI3_5, Q5TCQ9 = molecular target: MAGI3_5, Q5TCQ9
# Chain of MAGI3_5, Q5TCQ9 (Q5TCQ9 847-941): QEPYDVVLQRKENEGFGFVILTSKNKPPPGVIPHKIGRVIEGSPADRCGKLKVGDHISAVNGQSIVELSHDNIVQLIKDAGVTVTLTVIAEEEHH
# MAGIX, Q9H6Y5 = molecular target: MAGIX, Q9H6Y5
# Chain of MAGIX, Q9H6Y5 (Q9H6Y5 118-211): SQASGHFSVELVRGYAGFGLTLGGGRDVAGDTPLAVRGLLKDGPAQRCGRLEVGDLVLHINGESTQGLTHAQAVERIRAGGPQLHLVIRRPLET
# MAST3, O60307 = molecular target: MAST3, O60307
# Chain of MAST3, O60307 (O60307 945-1048): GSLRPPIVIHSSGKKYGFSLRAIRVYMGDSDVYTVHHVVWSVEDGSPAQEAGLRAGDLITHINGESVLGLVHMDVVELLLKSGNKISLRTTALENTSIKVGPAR
# MPDZ_13, O75970 = molecular target: T3, MPDZ_13, O75970
# MPDZ_7, O75970 = molecular target: T4, MPDZ_7, O75970
# MPP1, Q00013 = molecular target: T5, MPP1, Q00013
# NHERF3_2, Q5T2W1 = molecular target: T6, NHERF3_2, Q5T2W1
# PARD6G, Q9BYG4 = molecular target: T7, PARD6G, Q9BYG4
# PDLIM3, Q53GG5 = molecular target: T8, PDLIM3, Q53GG5
# PDLIM4, P50479 = molecular target: PDLIM4, P50479
# Chain of PDLIM4, P50479 (P50479 1-83): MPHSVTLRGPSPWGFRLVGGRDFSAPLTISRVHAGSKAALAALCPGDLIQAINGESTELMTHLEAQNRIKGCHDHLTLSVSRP
# PDZD2_3, O15018 = molecular target: T9, PDZD2_3, O15018
# PDZD9, Q8IXQ8 = molecular target: PDZD9, Q8IXQ8
# Chain of PDZD9, Q8IXQ8 (Q8IXQ8 23-120): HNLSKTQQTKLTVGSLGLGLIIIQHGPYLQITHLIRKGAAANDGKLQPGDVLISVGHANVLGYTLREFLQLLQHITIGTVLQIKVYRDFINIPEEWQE
# PTPN4, P29074 = molecular target: T10, PTPN4, P29074
# RGS3, P49796-9 = molecular target: RGS3, P49796-9
# Chain of RGS3, P49796-9 (P49796 other isoform, or with tags, fused parts or gaps): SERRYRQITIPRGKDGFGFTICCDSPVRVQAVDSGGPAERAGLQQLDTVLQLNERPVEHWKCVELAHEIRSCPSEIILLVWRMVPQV
# SDCBP_1, O00560 = molecular target: SDCBP_1, O00560
# Chain of SDCBP_1, O00560 (O00560 111-198): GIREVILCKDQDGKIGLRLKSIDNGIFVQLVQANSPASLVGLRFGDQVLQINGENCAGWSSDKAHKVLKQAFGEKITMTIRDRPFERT
# SHROOM3, Q8TF72 = molecular target: T11, SHROOM3, Q8TF72
# SHROOM4, Q9ULL8 = molecular target: T12, SHROOM4, Q9ULL8
# USH1C_1, Q9Y6N9 = molecular target: T13, USH1C_1, Q9Y6N9
"pKd (DLG2_1, Q15700)","pKd (DVL2, O14641)","pKd (GIPC1, O14908)","pKd (LIN7A, O14910)","pKd (MAGI1_5, Q96QZ7)","pKd (MAGI3_3, Q5TCQ9)","pKd (MAGI3_5, Q5TCQ9)","pKd (MAGIX, Q9H6Y5)","pKd (MAST3, O60307)","pKd (MPDZ_13, O75970)","pKd (MPDZ_7, O75970)","pKd (MPP1, Q00013)","pKd (NHERF3_2, Q5T2W1)","pKd (PARD6G, Q9BYG4)","pKd (PDLIM3, Q53GG5)","pKd (PDLIM4, P50479)","pKd (PDZD2_3, O15018)","pKd (PDZD9, Q8IXQ8)","pKd (PTPN4, P29074)","pKd (RGS3, P49796-9)",Binder,also measured
4.95,below the threshold,4.57,3.65,4.23,below the threshold,below the threshold,below the threshold,below the threshold,below the threshold,below the threshold,5.13,below the threshold,below the threshold,below the threshold,4.09,below the threshold,below the threshold,4.33,below the threshold,"KLVIKTETTV [RASSF6, Q6ZTQ3]","pKd (SDCBP_1, O00560): below the threshold; pKd (SHROOM3, Q8TF72): below the threshold; pKd (SHROOM4, Q9ULL8): below the threshold; pKd (USH1C_1, Q9Y6N9): below the threshold"
4.34,below the threshold,3.78,below the threshold,below the threshold,below the threshold,below the threshold,below the threshold,below the threshold,below the threshold,below the threshold,4.01,below the threshold,below the threshold,below the threshold,below the threshold,below the threshold,below the threshold,3.83,below the threshold,"PSRDRKETSI [RALBP1, Q15311]","pKd (SDCBP_1, O00560): below the threshold; pKd (SHROOM3, Q8TF72): below the threshold; pKd (SHROOM4, Q9ULL8): below the threshold; pKd (USH1C_1, Q9Y6N9): below the threshold"
4.38,below the threshold,4.44,below the threshold,below the threshold,4.54,below the threshold,below the threshold,below the threshold,below the threshold,below the threshold,4.85,below the threshold,below the threshold,below the threshold,below the threshold,below the threshold,below the threshold,below the threshold,below the threshold,"SHSSKGETAV [FZD7, O75084]","pKd (SDCBP_1, O00560): below the threshold; pKd (SHROOM3, Q8TF72): below the threshold; pKd (SHROOM4, Q9ULL8): below the threshold; pKd (USH1C_1, Q9Y6N9): below the threshold"
